The text below walks through data of PMC8528806, “Enzyme promiscuity in natural environments: alkaline phosphatase in the ocean” (The ISME Journal, 2021).

One may read the Km as the concentration of substrate that gives half-maximal velocity. As a reminder, the kcat is the number of substrate molecules converted per active site and unit of time at saturation. For orientation: kcat/Km means the second-order rate constant that governs catalysis at low substrate concentration.

Series [1] addresses T1, PhoA (APase; MADE1013045) (Alteromonas mediterranea, UniProt F2G8N3).
T1 construct: gene MADE_1013045; full-length 1467-bp synthetic gene, pETM-14, N-terminal His6-PreScission 3C, tag cleaved, expressed in E. coli BL21(DE3)
T1 sequence (F2G8N3 1-488): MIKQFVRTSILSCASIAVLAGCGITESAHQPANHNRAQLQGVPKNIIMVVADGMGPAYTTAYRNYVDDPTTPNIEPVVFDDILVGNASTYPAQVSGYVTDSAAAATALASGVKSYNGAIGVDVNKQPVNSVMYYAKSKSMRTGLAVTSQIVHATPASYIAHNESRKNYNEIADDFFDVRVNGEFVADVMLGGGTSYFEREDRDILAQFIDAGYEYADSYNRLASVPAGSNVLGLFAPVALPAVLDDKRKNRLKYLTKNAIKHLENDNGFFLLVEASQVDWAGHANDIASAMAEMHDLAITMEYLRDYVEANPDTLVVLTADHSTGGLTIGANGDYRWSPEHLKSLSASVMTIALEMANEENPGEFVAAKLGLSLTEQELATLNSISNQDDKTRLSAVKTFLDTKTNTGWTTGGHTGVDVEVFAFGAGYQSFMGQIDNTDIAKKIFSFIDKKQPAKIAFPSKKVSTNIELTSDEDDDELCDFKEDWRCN
Put plainly: p-nitrophenol release, absorbance […] nm, Michaelis-Menten fit. The note with it: read-out: KM (μmol l^-1); 100 mM Tris pH 8.2, 24 °C, 100 µM MgCl2; 10 nM enzyme. The format is biochemical.

Substrate in series [2]: O=[N+]([O-])c1ccc(OP(=O)(O)O)cc1
Put plainly: purified protein. As to conditions: 100 mM Tris pH 8.2, 24 °C, 100 µM MgCl2, 1 nM enzyme, text rounds KM to 90 µM. The format is biochemical, Alteromonas mediterranea.

Substrate in series [3]: O=[N+]([O-])c1ccc(OP(=O)(O)Oc2ccc([N+](=O)[O-])cc2)cc1
Put plainly: purified protein. The format is biochemical, Alteromonas mediterranea. As to conditions: 100 mM Tris pH 8.2, 24 °C, 100 µM MgCl2, 10 nM enzyme.

`COP(=O)(OC)Oc1ccc([N+](=O)[O-])cc1` [Paraoxon-methyl]: the Km in series [1] is 0.015 µM.

B1: PhoA (APase; MADE1013045) (Alteromonas mediterranea DE) (protein)
chain: MIKQFVRTSILSCASIAVLAGCGITESAHQPANHNRAQLQGVPKNIIMVVADGMGPAYTTAYRNYVDDPTTPNIEPVVFDDILVGNASTYPAQVSGYVTDSAAAATALASGVKSYNGAIGVDVNKQPVNSVMYYAKSKSMRTGLAVTSQIVHATPASYIAHNESRKNYNEIADDFFDVRVNGEFVADVMLGGGTSYFEREDRDILAQFIDAGYEYADSYNRLASVPAGSNVLGLFAPVALPAVLDDKRKNRLKYLTKNAIKHLENDNGFFLLVEASQVDWAGHANDIASAMAEMHDLAITMEYLRDYVEANPDTLVVLTADHSTGGLTIGANGDYRWSPEHLKSLSASVMTIALEMANEENPGEFVAAKLGLSLTEQELATLNSISNQDDKTRLSAVKTFLDTKTNTGWTTGGHTGVDVEVFAFGAGYQSFMGQIDNTDIAKKIFSFIDKKQPAKIAFPSKKVSTNIELTSDEDDDELCDFKEDWRCN
notes: full-length 1467-bp synthetic gene, pETM-14, N-terminal His6-PreScission 3C, tag cleaved, expressed in E. coli BL21(DE3)
Regarding B1, in series [2], the Km amounted to 94 ± 35 µM, the kcat is 0.5 ± 0.03 s⁻¹ and the kcat/Km came to 4800 ± 800 M⁻¹ s⁻¹. In series [3], the Km was 0.3 ± 0.1 µM, the catalytic constant (kcat) worked out at 0.017 ± 0.001 s⁻¹ and the specificity constant (kcat/Km) stood at 55000 ± 8000 M⁻¹ s⁻¹.
